Reference: publication PMC13006735 (Research, 2026)
Residue numbers refer to the chain shown, from its start. Names and notes keep the numbering of the source.

B1: ADI-15946 (antibody, V domains shown)
VH: EVQLVESGGGLVKPGGSLRLSCAASGFTFSNAWMSWVRQAPGKGLEWVGRIKSKTDGGTIDYAAPVKGRFTISRDDSKNTVYLQMTSLKTEDTAVYYCTTYTEDMRYFDWLLRGGETFDYWGQGTLVTVSS
VL: DIRLTQSPSSLSASVGDRVTITCRASHYISTYLNWYQQKPGKAPKLLIYAASNLQSGVPSRFSGSGFGTDFSLTISSLQPEDFATYHCQQSYSTPGRYTFGQGTKVEIK
notes: also called wild-type ADI-15946; parental antibody
B2:  (antibody, V domains shown)
VH: B1 VH
VL: B1 VL with A50Y, S52Y, L54R
notes: also called A50Y/S52Y/L54R-LC variant
B3:  (antibody, V domains shown)
VH: B1 VH
VL: B1 VL with H27Q, S52Y, G66R
notes: also called H27Q/S52Y/G66R-LC variant

How the values were obtained:
[1] = biological target: T1, Sudan virus (SUDV) glycoprotein GP (Sudan ebolavirus, strain  for …, UniProt Q7T9D9); experiment: SPR; details: both partners purified
[2] = biological target: T1, Sudan virus (SUDV) glycoprotein GP; experiment: cell-based or functional assay

Binder	Kd [1]	IC50, neutralisation of SUDV GP pseudovirus (luciferase, Huh7 cells) [2]
B1	2.24 nM	9.16 µg/mL
B2	–	0.22 µg/mL
B3	–	0.08 µg/mL
